The numbers were not newly measured in paper PMC6558399, which cites them from elsewhere.

The target in this data set is Galectin-1 (Homo sapiens) (UniProt P09382).

As a reminder, the Kd is the free concentration of one partner at which half of the binding sites on the other are occupied at equilibrium, for simple one-to-one binding. For Galectin-1 (from UniProt P09382), the Kd was 7 µM.
